Test results reported in article PMC9871560, “Truncated-semaphorin3A is a potential regulatory molecule to restore immune homeostasis in immune-mediated diseases” (Frontiers in Pharmacology, 2022).

B1: CD72 recombinant protein, extracellular part (amino acids 117-359) (domain or fragment, UniProt P21854 117-359, looked up)
chain: RYLQVSQQLQQTNRVLEVTNSSLRQQLRLKITQLGQSAEDLQGSRRELAQSQEALQVEQRAHQAAEGQLQACQADRQKTKETLQSEEQQRRALEQKLSNMENRLKPFFTCGSADTCCPSGWIMHQKSCFYISLTSKNWQESQKQCETLSSKLATFSEIYPQSHSYYFLNSLLPNGGSGNSYWTGLSSNKDWKLTDDTQRTRTYAQSSKCNKVHKTWSWWTLESESCRSSLPYICEMTAFRFPD
notes: CD72, extracellular part, amino acids 117-359; source: HEK293 stably expressing (lentiviral vector NSPI), purified (Ni-NTA agarose)
B2: Truncated-sema3A (T-sema3A) (domain or fragment, human, UniProt Q14563 21-516, looked up)
chain: NYQNGKNNVPRLKLSYKEMLESNNVITFNGLANSSSYHTFLLDEERSRLYVGAKDHIFSFDLVNIKDFQKIVWPVSYTRRDECKWAGKDILKECANFIKVLKAYNQTHLYACGTGAFHPICTYIEIGHHPEDNIFKLENSHFENGRGKSPYDPKLLTASLLIDGELYSGTAADFMGRDFAIFRTLGHHHPIRTEQHDSRWLNDPKFISAHLISESDNPEDDKVYFFFRENAIDGEHCGKATHARIGQICKNDFGGHRSLVNKWTTFLKARLICSVPGPNGIDTHFDELQDVFLMNFKDPKNPVVYGVFTTSSNIFKGSAVCMYSMSDVRRVFLGPYAHRDGPNYQWVPYQGRVPYPRPGTCPSKTFGGFDSTKDLPDDVITFARSHPAMYNPVFPMNNRPIVIKTDVNYQFTQIVVDRVDAEDGQYDVMFIGTDVGTVLKVVSIPKETWYDLEEVLLEEMTVFREPTAISAMELSTKQQQLYIGSTAGVAQLPLHR
notes: signal peptide in the construct; human semaphorin3A, amino acids 1-516 of the parental sema3A, with S257C to make an artificial disulfide dimerization site; Secreted into the medium; Without reducing agent it runs as a homodimer (~140 kDa double band) together with some monomer (~68 kDa); also called truncated semaphorin3A; source: HEK293 stably expressing (lentiviral vector NSPI), serum-free …
B3: Parental semaphorin3A (P-sema3A) (ligand, human, UniProt Q14563 21-771, looked up)
chain: NYQNGKNNVPRLKLSYKEMLESNNVITFNGLANSSSYHTFLLDEERSRLYVGAKDHIFSFDLVNIKDFQKIVWPVSYTRRDECKWAGKDILKECANFIKVLKAYNQTHLYACGTGAFHPICTYIEIGHHPEDNIFKLENSHFENGRGKSPYDPKLLTASLLIDGELYSGTAADFMGRDFAIFRTLGHHHPIRTEQHDSRWLNDPKFISAHLISESDNPEDDKVYFFFRENAIDGEHSGKATHARIGQICKNDFGGHRSLVNKWTTFLKARLICSVPGPNGIDTHFDELQDVFLMNFKDPKNPVVYGVFTTSSNIFKGSAVCMYSMSDVRRVFLGPYAHRDGPNYQWVPYQGRVPYPRPGTCPSKTFGGFDSTKDLPDDVITFARSHPAMYNPVFPMNNRPIVIKTDVNYQFTQIVVDRVDAEDGQYDVMFIGTDVGTVLKVVSIPKETWYDLEEVLLEEMTVFREPTAISAMELSTKQQQLYIGSTAGVAQLPLHRCDIYGKACAECCLARDPYCAWDGSACSRYFPTAKRRTRRQDIRNGDPLTHCSDLHHDNHHGHSPEERIIYGVENSSTFLECSPKSQRALVYWQFQRRNEERKEEIRVDDHIIRTDQGLLLRSLQQKDSGNYLCHAVEHGFIQTLLKVTLEVIDTEHLEELLHKDDDGDGSKTKEMSNSMTPSQKVWYRDFMQLINHPNLNTMDEFCEQVWKRDRKQRRQRPGHTPGNSNKWKHLQENKKGRNRRTHEFERAPRSV
notes: human parental semaphorin3A; Secreted into the medium; The preparation holds monomer (~95 kDa), dimer (~160 kDa) and ~70 kDa fragments from cleavage by furin; also called parental sema3A; original sema3A; source: HEK293, serum-free culture medium, purified (Ni-NTA agarose)

Assays:
[1] = molecular target: B2; assay: ELISA; homemade ELISA; 5 ug/mL purified CD72 coated on a MaxiSorp plate overnight at 4 C; 0-25 ug/mL purified P- or T-sema3A added for 3 h at 4 C; detected with polyclonal goat anti-sema3A and anti-goat HRP; Kd from the one site total binding equation (GraphPad Prism); conditions: both partners purified
[2] = molecular target: B3; assay: as above; conditions: both partners purified
[3] = molecular target: the molecule itself; assay: SDS-PAGE without reducing agent, immunoblot; purified proteins on SDS-PAGE with or without dithiothreitol, immunoblotted with polyclonal goat anti-human sema3A; monomer to disulfide-linked dimer

Binder	Kd [1] [nM]	Kd [2] [nM]	stoichiometry N [3]
B1	~4.85	~7.3	–
B2	–	–	2
B3	–	–	2
